# Assay results from patent publication US20200385427A1.
# Starred links: 1 amine or outer side, 2 acyl side, 3 side chain; linkers in the order of their positions; H or OH if unused. Non-standard residues stand in square brackets, D forms with d. No end group written: not given here. Trimesoyl = O=C(c1cc(C(=O)[*:2])cc(C(=O)[*:3])c1)[*:1]; F2Pmp = N[C@@H](Cc1ccc(C(F)(F)P(=O)(O)O)cc1)C(=O)O; Phe(4-F) = N[C@@H](Cc1ccc(F)cc1)C(=O)O; dPhe(4-F) = N[C@H](Cc1ccc(F)cc1)C(=O)O; 2Nal = N[C@@H](Cc1ccc2ccccc2c1)C(=O)O; Phg = N[C@H](C(=O)O)c1ccccc1; Pip = O=C(O)[C@@H]1CCCCN1; Nle = CCCC[C@H](N)C(=O)O; Dap = NC[C@H](N)C(=O)O; Sar = CNCC(=O)O
# Tests used:
# [1] = biological target: Pin1 (human) (UniProt Q13526); experiment: fluorescence anisotropy, FITC-labeled peptide
# [2] = biological target: MBP-Pin1 (S16A/Y23A mutant Pin1 as a maltose-binding protein fusion at the N-terminus) (UniProt Q13526); experiment: FA of TMR-labeled peptide released from the bead, 5 µM MBP-Pin1
# [3] = biological target: ybbR-tagged PTP1B catalytic domain (amino acids 1-321) (UniProt P18031); experiment: cell-based or functional assay
# [4] = biological target: Pin1 (human) (UniProt Q13526); experiment: cell-based or functional assay
# [5] = biological target: full-length human S16A/Y23A mutant Pin1 (human) (UniProt Q13526); experiment: fluorescence anisotropy, FITC-labeled peptide
# Sequence of ybbR-tagged PTP1B catalytic domain (amino acids 1-321) (P18031 other isoform, or with tags, fused parts or gaps limits assumed): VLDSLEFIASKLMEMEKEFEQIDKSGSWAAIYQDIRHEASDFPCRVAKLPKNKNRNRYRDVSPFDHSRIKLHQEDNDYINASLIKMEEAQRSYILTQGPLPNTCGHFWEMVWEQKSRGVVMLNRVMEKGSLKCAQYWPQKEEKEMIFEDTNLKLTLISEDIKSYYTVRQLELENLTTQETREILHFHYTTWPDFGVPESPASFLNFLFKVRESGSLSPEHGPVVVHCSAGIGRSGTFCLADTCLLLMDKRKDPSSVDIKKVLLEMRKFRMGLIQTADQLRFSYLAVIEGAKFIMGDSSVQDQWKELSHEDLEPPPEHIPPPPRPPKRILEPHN
binder,measurement,setting,value
XHXTXXRAAXFXRRRRXK (not fully specified; bicyclo[Tm-(His-Phg-D-Thr-Pip-Nal-Arg-Ala-D-Ala)-Dap-(Phe-Nal-Arg-Arg-Arg-Arg-Dap)]-Lys) [peptide 8 (Table 18)],Kd,[1],1000 nM
same,FA increase relative to the no-protein control,[2],> 50%
XXIEXXRAAXFXRRRRXK (not fully specified; bicyclo[Tm-(Mpa-Ile-D-Glu-Pip-Nal-Arg-Ala-D-Ala)-Dap-(Phe-Nal-Arg-Arg-Arg-Arg-Dap)]-Lys) [peptide 7 (Table 18)],Kd,[1],1000 nM
same,FA increase relative to the no-protein control,[2],> 50%
AXXXXYQK (cyclo(D-Ala-Sar-D-pThr-Pip-Nal-Tyr-Gln)-Lys-NH2) [Pin1 inhibitor 5],Kd,[1],240 nM
cyclo([dT][dN][dV][F2Pmp][dA]RRRR[2Nal]FQ) (SMILES CC(C)[C@H]1NC(=O)[C@@H](CC(N)=O)NC(=O)[C@@H]([C@H](C)O)NC(=O)[C@H](CCC(N)=O)NC(=O)[C@H](Cc2ccccc2)NC(=O)[C@H](Cc2ccc3ccccc3c2)NC(=O)[C@H](CCCNC(=N)N)NC(=O)[C@H](CCCNC(=N)N)NC(=O)[C@H](CCCNC(=N)N)NC(=O)[C@H](CCCNC(=N)N)NC(=O)[C@@H](C)NC(=O)[C@H](Cc2ccc(C(F)(F)P(=O)(O)O)cc2)NC1=O) [Monocyclic Inhibitor 1],IC50 (inhibition of pNPP hydrolysis),[3],100 nM
XXHEXXRAAXFXRRRRXK (not fully specified; bicyclo[Tm-(Phg-His-D-Glu-Pip-Nal-Arg-Ala-D-Ala)-Dap-(Phe-Nal-Arg-Arg-Arg-Arg-Dap)]-Lys) [peptide 6 (Table 18)],Kd,[1],1000 nM
same,FA increase relative to the no-protein control,[2],> 50%
XAXXXXRAAXFXRRRRXK (not fully specified; bicyclo[Tm(D-Ala-Sar-D-pThr-Pip-Nal-Arg-Ala-D-Ala)-Dap-(Phe-Nal-Arg-Arg-Arg-Arg-Dap)]-Lys-NH2) [Pin1 inhibitor 7],"IC50 (HeLa cell growth, MTT assay)",[4],1800 nM
same,"PML protein level in HeLa cells (western blot), at 5 µM",[4],3.1 fold
same,fold improvement of potency against inhibitor 6,[5],2 fold
"Trimesoyl-P[Sar][dD][Pip][2Nal]RR[dF][Dap]F[2Nal]RRRR[Dap]K (linker (positions not given here) via Trimesoyl; not fully specified (C-terminus, bridges); printed as bicyclo[Tm-(Pro-Sar-D-Asp-Pip-Nal-Arg-Arg-D-Phe)-Dap-(Phe-Nal-Arg-Arg-Arg-Arg-Dap)]-Lys) [peptide 22 (Table 18)]",fold increase of Pin1 inhibitory activity against the D-Ala parent,[1],2 fold
cyclo(IP[Phg][F2Pmp][Nle]RRRR[2Nal]FQ) [Monocyclic Inhibitor 3],IC50 (inhibition of pNPP hydrolysis),[3],200 nM
"Trimesoyl-[dPhe(4-F)][Phe(4-F)][dT][Pip][2Nal]RA[dF][Dap]F[2Nal]RRRR[Dap]K (linker (positions not given here) via Trimesoyl; not fully specified (C-terminus, bridges); printed as bicyclo[Tm-(D-4-Fpa-Fpa-D-Thr-Pip-Nal-Arg-Ala-D-Phe)-Dap-(Phe-Nal-Arg-Arg-Arg-Arg-Dap)]-Lys) [peptide 37 (Table 18)]","IC50 (HeLa cell growth, MTT assay)",[4],1000 nM
same,IC50 (cis-trans isomerase activity toward Suc-Ala-Glu-Pro-Phe-pNA),[4],170 nM
same,"PML protein level in HeLa cells (western blot), at 0.2 µM inhibitor",[4],1.8 fold
same,"PML protein level in HeLa cells (western blot), at ˜1 µM inhibitor",[4],3.3 fold
"Trimesoyl-[dF][Phe(4-F)][dT][Pip][2Nal]RA[dA][Dap]F[2Nal]RRRR[Dap]K (linker (positions not given here) via Trimesoyl; not fully specified (C-terminus, bridges); printed as bicyclo[Tm-(D-Phe-Fpa-D-Thr-Pip-Nal-Arg-Ala-D-Ala)-Dap-(Phe-Nal-Arg-Arg-Arg-Arg-Dap)]-Lys) [peptide 4 (Table 18)]",Kd,[1],1000 nM
